Results from the supplement of paper PMC9112550, “Optimization of the antimicrobial peptide Bac7 by deep mutational scanning” (BMC Biology, 2022).

System: Escherichia coli TOP10
Experiment: shrunken log2 fold change of peptide-encoding DNA abundance (4.5 h post-induction vs induction); higher = less antimicrobial activity (less host growth inhibition)
Settings: time post-induction: 4.5 h; library: site-saturation at positions 5, 18, 19, 20
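Note: peptides expressed intracellularly from a pBAD plasmid library in pooled LB shake-flask culture, induced with 0.3% L-arabinose, DNA abundance read by NGS, three biological replicates, DESeq2 with apeglm shrinkage.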

Sequence | shrunken log2 fold change
RRIRQRPPRLPRPRPRPMVRPRP | -0.17
RRIRNRPPRLPRPRPRPIMVPRP | 0.00732
RRIRRRPPRLPRPRPRPDPQPRP | 1.23
RRIRIRPPRLPRPRPRPLRHPRP | -0.172
RRIRPRPPRLPRPRPRPMEPPRP | -0.153
RRIRIRPPRLPRPRPRPCIVPRP | -0.562
RRIRGRPPRLPRPRPRPFAKPRP | 0.479
RRIRGRPPRLPRPRPRPTDRPRP | 0.0231
RRIRCRPPRLPRPRPRPSPFPRP | -0.0566
RRIRRRPPRLPRPRPRPPVQPRP | 0.366
RRIRIRPPRLPRPRPRPTCSPRP | -0.371
RRIRTRPPRLPRPRPRPGRVPRP | 0.744
RRIRCRPPRLPRPRPRPSYYPRP | -0.794
RRIRERPPRLPRPRPRPKSIPRP | -0.323
RRIRQRPPRLPRPRPRPKQPPRP | 0.0884
RRIRFRPPRLPRPRPRPQQVPRP | 0.0179
RRIRHRPPRLPRPRPRPISYPRP | 0.121
RRIRQRPPRLPRPRPRPALHPRP | 1.38
RRIRKRPPRLPRPRPRPHFQPRP | 0.0821
RRIRMRPPRLPRPRPRPCVDPRP | 0.0636
RRIRQRPPRLPRPRPRPIGLPRP | -0.00141
RRIRVRPPRLPRPRPRPASYPRP | 0.0708
RRIRARPPRLPRPRPRPPRMPRP | 0.949
RRIRWRPPRLPRPRPRPKDAPRP | 0.362
RRIRVRPPRLPRPRPRPGIMPRP | -0.000355

Sequence | shrunken log2 fold change
RRIRYRPPRLPRPRPRPFPTPRP | -0.781
RRIRCRPPRLPRPRPRPMHSPRP | -0.0254
RRIRDRPPRLPRPRPRPTNDPRP | 0.0152
RRIRWRPPRLPRPRPRPYLWPRP | -0.153
RRIRQRPPRLPRPRPRPNTHPRP | -0.203
RRIRERPPRLPRPRPRPPPPPRP | 0.646
RRIRMRPPRLPRPRPRPRKQPRP | 0.938
RRIRTRPPRLPRPRPRPPEMPRP | 0.237
RRIRMRPPRLPRPRPRPLEKPRP | 1.07
RRIRQRPPRLPRPRPRPEQLPRP | -0.0643
RRIRWRPPRLPRPRPRPKIIPRP | -0.0886
RRIRHRPPRLPRPRPRPVWDPRP | -0.0821
RRIRQRPPRLPRPRPRPEQWPRP | 0.222
RRIRSRPPRLPRPRPRPNTFPRP | -0.0296
RRIRKRPPRLPRPRPRPMLFPRP | 0.315
RRIRWRPPRLPRPRPRPTPIPRP | 0.419
RRIRGRPPRLPRPRPRPYNGPRP | -0.0131
RRIRPRPPRLPRPRPRPYYMPRP | -0.864
RRIRGRPPRLPRPRPRPINAPRP | 0.288
RRIRSRPPRLPRPRPRPVQFPRP | 0.11
RRIRPRPPRLPRPRPRPYQAPRP | -0.0753
RRIRTRPPRLPRPRPRPCIEPRP | -0.183
RRIRYRPPRLPRPRPRPYQPPRP | 0.0857
RRIRCRPPRLPRPRPRPFSEPRP | -0.929
RRIRDRPPRLPRPRPRPCRWPRP | -0.537

Sequence | shrunken log2 fold change
RRIRCRPPRLPRPRPRPYAWPRP | -0.553
RRIRQRPPRLPRPRPRPKRIPRP | -0.0308
RRIRERPPRLPRPRPRPDHHPRP | -0.478
RRIRFRPPRLPRPRPRPSLEPRP | -0.0776
RRIRHRPPRLPRPRPRPNETPRP | 0.00408
RRIRYRPPRLPRPRPRPIQSPRP | -0.00206
RRIRNRPPRLPRPRPRPLGSPRP | -0.0602
RRIRIRPPRLPRPRPRPWTPPRP | -0.179
RRIRLRPPRLPRPRPRPDCMPRP | -0.0708
RRIRIRPPRLPRPRPRPKCVPRP | -0.328
RRIRNRPPRLPRPRPRPDQMPRP | 0.0898
RRIRRRPPRLPRPRPRPYTHPRP | -0.505
RRIRVRPPRLPRPRPRPEKSPRP | 0.0304
RRIRFRPPRLPRPRPRPMALPRP | -0.706
RRIRFRPPRLPRPRPRPGSMPRP | -0.255
RRIRMRPPRLPRPRPRPCRRPRP | 0.0172
RRIRCRPPRLPRPRPRPMGWPRP | 0.324
RRIRCRPPRLPRPRPRPHEAPRP | -0.65
RRIRARPPRLPRPRPRPELVPRP | 1.3
RRIRKRPPRLPRPRPRPYQDPRP | 0.0178
RRIRRRPPRLPRPRPRPALSPRP | 0.528
RRIRHRPPRLPRPRPRPHTDPRP | -0.212
RRIRNRPPRLPRPRPRPGQAPRP | 0.0345
RRIRSRPPRLPRPRPRPDYAPRP | -0.0222
RRIRERPPRLPRPRPRPVLKPRP | 0.0458

Sequence | shrunken log2 fold change
RRIRCRPPRLPRPRPRPHEHPRP | 1.94
RRIRPRPPRLPRPRPRPMRYPRP | 0.0689
RRIRLRPPRLPRPRPRPIGAPRP | -0.0568
RRIRGRPPRLPRPRPRPDNPPRP | 0.0274
RRIRMRPPRLPRPRPRPIKIPRP | -0.0554
RRIRPRPPRLPRPRPRPHRRPRP | -0.0778
RRIRERPPRLPRPRPRPHVRPRP | -0.105
RRIRWRPPRLPRPRPRPNAIPRP | -0.123
RRIRARPPRLPRPRPRPFGPPRP | 0.0166
RRIRHRPPRLPRPRPRPMQEPRP | -0.01
RRIRVRPPRLPRPRPRPSDNPRP | -0.878
RRIRIRPPRLPRPRPRPYPLPRP | -0.176
RRIRNRPPRLPRPRPRPVYKPRP | -0.453
RRIRRRPPRLPRPRPRPRSQPRP | 0.533
RRIRDRPPRLPRPRPRPCCEPRP | 0.961
RRIRNRPPRLPRPRPRPLHQPRP | -0.112
RRIRNRPPRLPRPRPRPCRPPRP | -0.197
RRIRTRPPRLPRPRPRPQNSPRP | -1.19
RRIRNRPPRLPRPRPRPHMRPRP | -0.00174
RRIRMRPPRLPRPRPRPFQAPRP | 0.242
RRIRRRPPRLPRPRPRPSHCPRP | -0.041
RRIRDRPPRLPRPRPRPVFRPRP | 0.18
RRIRRRPPRLPRPRPRPCMNPRP | -0.154
RRIRPRPPRLPRPRPRPLGKPRP | -0.361
RRIRARPPRLPRPRPRPFDMPRP | 0.0608

Sequence | shrunken log2 fold change
RRIRQRPPRLPRPRPRPIIDPRP | -0.199
RRIRPRPPRLPRPRPRPMNAPRP | -0.158
RRIRRRPPRLPRPRPRPQESPRP | -0.131
RRIRPRPPRLPRPRPRPRCEPRP | 0.809
RRIRVRPPRLPRPRPRPWQKPRP | 0.015
RRIRPRPPRLPRPRPRPDWQPRP | -0.0976
RRIRWRPPRLPRPRPRPGVIPRP | 0.0325
RRIRNRPPRLPRPRPRPMMNPRP | 0.274
RRIRFRPPRLPRPRPRPLHIPRP | -0.7
RRIRWRPPRLPRPRPRPLYSPRP | -0.247
RRIRKRPPRLPRPRPRPIEAPRP | 0.0321
RRIRQRPPRLPRPRPRPHSDPRP | 0.0233
RRIRGRPPRLPRPRPRPQMMPRP | 0.112
RRIRSRPPRLPRPRPRPVQCPRP | -0.102
RRIRYRPPRLPRPRPRPPWQPRP | -0.121
RRIRNRPPRLPRPRPRPYPYPRP | -0.242
RRIRFRPPRLPRPRPRPLFEPRP | -0.0359
RRIRFRPPRLPRPRPRPACLPRP | -0.105
RRIRDRPPRLPRPRPRPHWAPRP | -0.00226
RRIRPRPPRLPRPRPRPAHQPRP | 0.387
RRIRERPPRLPRPRPRPFEGPRP | -0.105
RRIRFRPPRLPRPRPRPTACPRP | -0.118
RRIRERPPRLPRPRPRPIELPRP | -0.163
RRIRDRPPRLPRPRPRPMGQPRP | 0.0515
RRIRKRPPRLPRPRPRPTDKPRP | 0.208

Sequence | shrunken log2 fold change
RRIRLRPPRLPRPRPRPHPFPRP | 0.0808
RRIRSRPPRLPRPRPRPSSVPRP | -0.354
RRIRYRPPRLPRPRPRPRNPPRP | 0.0734
RRIRMRPPRLPRPRPRPCRLPRP | 0.0956
RRIRTRPPRLPRPRPRPRPEPRP | 0.238
RRIRLRPPRLPRPRPRPYCFPRP | -0.909
RRIRDRPPRLPRPRPRPTISPRP | -0.0421
RRIRNRPPRLPRPRPRPMENPRP | -0.0164
RRIRHRPPRLPRPRPRPQAAPRP | -0.0209
RRIRVRPPRLPRPRPRPGNKPRP | -0.286
RRIRVRPPRLPRPRPRPVQAPRP | -0.0106
RRIRYRPPRLPRPRPRPNKFPRP | -0.546
RRIRWRPPRLPRPRPRPDIEPRP | -0.0323
RRIRIRPPRLPRPRPRPCRSPRP | -0.365
RRIRPRPPRLPRPRPRPYMPPRP | -0.854
RRIRFRPPRLPRPRPRPTHMPRP | 0.0264
RRIRERPPRLPRPRPRPFWLPRP | 0.463
RRIRCRPPRLPRPRPRPMANPRP | 0.0226
RRIRMRPPRLPRPRPRPRVFPRP | 0.947
RRIRERPPRLPRPRPRPINSPRP | -0.157
RRIRFRPPRLPRPRPRPPMCPRP | -0.0102
RRIRCRPPRLPRPRPRPNMHPRP | -0.615
RRIRCRPPRLPRPRPRPGPQPRP | 0.117
RRIRGRPPRLPRPRPRPYAQPRP | 0.104
RRIRTRPPRLPRPRPRPSLQPRP | -0.0953
